The target in the assay is ookinete protein Pfs25 (Plasmodium falciparum NF54 (3D7 entry …, UniProt P13829)). Description: ELISA; Pfs25 ELISA; series of mAb concentrations, OD 450 nm.
Sequence of ookinete protein Pfs25 (Plasmodium falciparum NF54 (P13829 17-196): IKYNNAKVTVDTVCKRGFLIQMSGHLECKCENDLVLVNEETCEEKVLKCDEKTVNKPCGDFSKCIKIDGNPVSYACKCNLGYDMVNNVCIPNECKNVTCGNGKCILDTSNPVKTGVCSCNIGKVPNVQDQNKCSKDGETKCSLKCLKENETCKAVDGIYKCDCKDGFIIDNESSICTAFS

B1: LMIV230-01 human monoclonal antibody (IgG1, kappa) (antibody, V domains shown)
VH: QVQLVQSGAEVKKPGSSVKVSCKVSGGTFNTYAIIWVRQAPGQGLEWMGAIIPFQDRGQYAQKFQGRVTITADKSTSTAYMELSSLRSEDTAVYYCAKESGRAVADRWGQGTLVTVSS
VL: DIVMTQSPASLALSLGERATLYCRASHSISSWLAWYQQKPGKAPKLLIYKASTLESGVPSRFSGSGSGTEFTLTISSLQPDDFATYYCQQYKSYPWTFGQGTKLEIK
Regarding B1, the binding result was “no binding”.

B2: LMIV230-02 human monoclonal antibody (IgG1, kappa) (antibody, V domains shown)
VH: QVQLVQSGAEVKKPGSSVKVSCKASGGTFNSYGISWVRQAPGQGLEWVGGIIPSFGTADYAQKFQGRVTFTTDTSTSTAYMEVSSLRSEDTAVYYCAGSSWSSGTYYGRSAYWGQGTLVTVSS
VL: EIVMTQSPASLALSLGERATINCKSSQSVLYSSNNKNYLAWYQQKPGQPPKLLIYWASTRESGVPDRFSGSGSGTDFTLTISSLQAGDVAVYHCQQYYSTPYSFGQGTKLEIK
Take B2: the binding result was “no binding”.

The record behind these values is PMC7979743 (Nature Communications, 2021).
